Here are results for two molecules from US20230374151A1 (GlaxoSmithKline, published 2023).

For test [1], the target named is T1, STnMUC1 peptide, biotinylated.
T1 construct: also called STn peptide; 35-1
Nature of the test: SPR (Biacore T200): biotinylated STnMUC1 peptide (35-1) captured on CAP chip, scFv as analyte, 1:1 fit, average. A general note: SPR reads the build-up and loss of mass on a sensor chip optically.

Test [2] deals with T2, TnMUC1 peptide (fully glycosylated), biotinylated.
T2 construct: Two batches (36-2 and 65-1) of the same peptide; also called 36-2; 7-36-2
Briefly: SPR (Biacore T200), peptide 36-2 on CAP chip, scFv as analyte, 1:1 fit; single run. As for the experimental part:
(§1) Biotin CAPture Reagent was captured onto the active and reference flow cells for 300 seconds at 2 μl/min. The biotinylated peptides were diluted in BIAcore Running Buffer (as described above) and captured onto the active flow cell only, at a flow rate of 10 μl/min to obtain the capture level calculated in the equation detailed above.
(§2) The humanised anti-TnMUC1 scFv proteins were passed over the reference and active flow cells at 500, 125, 31.25, 7.8, 1.9, 0 nM for binding to TnMUC1 and MUC1 peptides with a 300 second association followed by a 900 seconds dissociation with BIAcore Running Buffer at a flow rate of 30 μl/min.
(§3) BIAcore T200 Evaluation Software v3.0 was used to analyse the data. The data obtained has been fitted to a 1:1 binding model with the Rmax parameter set to local. As this is a capture experiment, a local Rmax parameter would be truly reflective as the protein is recaptured every time and theoretically surface is slightly different at each recapture, possibly producing slightly different capture each time. Kinetic Parameters (KD, kd and kₐ) were calculated for all the humanised anti-TnMUC1 scFv proteins.

In test [3] the target is T2, TnMUC1 peptide (fully glycosylated), …. Briefly: SPR (Biacore T200): biotinylated TnMUC1 peptide batch 65-1 captured on CAP chip, scFv as analyte.
For test [4], the target named is T1, STnMUC1 peptide, biotinylated. Nature of the test: SPR (Biacore T200): biotinylated STnMUC1 peptide (35-1) captured on CAP chip, scFv as analyte. How it is done:
(§4) The CAP chip (from the Biotin CAPture kit) was docked into BIAcore T200 instrument to hydrate overnight, as per manufacturer instructions. When the chip is docked (for the first time or after storage), the surface of the sensor chip needs to be conditioned with 3×1 minute injections of Regeneration Solution (from the Biotin CAPture kit). Regeneration Solution was prepared by mixing 3 parts of Regeneration Stock 1 (8M Guanidine-HCl) with 1-part Regeneration Stock 2 (1M NaOH). Both the reference and active flow cells of the sensor chip were conditioned with 3×60 second injections of Regeneration Solution at a flow rate of 10 μl/min.
as §1

Test [5] shares this target. Described as above. This is another data set of the same source.
Test [6] has as its target T3, TnMUC1 peptide 1 (partially glycosylated), biotinylated.
T3 construct: also called 96-1; 32A
Briefly: SPR (Biacore T200): biotinylated TnMUC1 peptide 1 (96-1) captured on CAP chip, scFv as analyte, 1:1 fit, average. How it is done: as §1, §2, §3

Test [7] deals with T2, TnMUC1 peptide (fully glycosylated), …. Briefly: SPR (Biacore T200), peptide 36-2 on CAP chip, scFv as analyte, 1:1 fit; average. How it is done: as §1, §2, §3
The target is the same in test [8]. Briefly: SPR (Biacore T200), peptide 36-2 on CAP chip, scFv as analyte, 1:1 fit; average, restated in nM. How it is done:
as §1, §2, §3

For test [9], the target named is T1, STnMUC1 peptide, biotinylated. Nature of the test: SPR (Biacore T200), STnMUC1 peptide on CAP chip, scFv as analyte. As for the experimental part: as §4, §1
Test [10] has as its target T2, TnMUC1 peptide (fully glycosylated), …. Nature of the test: SPR (Biacore T200): biotinylated TnMUC1 peptide batch 65-1 captured on CAP chip, scFv as analyte, 1:1 fit, average. As for the experimental part:
as §1, §2, §3

The target of test [11] is T3, TnMUC1 peptide 1 (partially …). Briefly: SPR (Biacore T200): biotinylated TnMUC1 peptide 1 (96-1) captured on CAP chip, scFv as analyte.
Test [12] addresses T4, MUC1 peptide (non-glycosylated), biotinylated (N-terminal Biotin-PEG2; C-terminal amide).
T4 construct: also called 36-4; 7-36-4
T4 peptide: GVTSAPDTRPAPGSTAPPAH
Briefly: SPR (Biacore T200): biotinylated peptide captured on CAP chip, scFv as analyte.

In test [13] the target is T4, MUC1 peptide (non-glycosylated), …. Briefly: SPR (Biacore T200), biotinylated peptide on CAP chip, scFv as analyte.

Residue numbers refer to the chain shown, from its start. Several values for one entry are separate records, joined by “and”; a condition that tells them apart may be missing. Equal values may be shown once.

B1: humanised anti-TnMUC1 scFv protein 13P16 (97A), L2-H3 (scFv)
scFv: DIVMTQSPDSLAVSLGERATINCKSSQSLLNSGDQKNYLTWYQQKPGQPPKLLIFWASTRESGVPDRFSGSGSGTDFTLTISSLQAEDVAVYYCQNDYSYPLTFGQGTKLEIKGGGGSGGGGSGGGGSGGGGSQVQLVQSGAEVKKPGSSVKVSCKASGYTFTDHAIHWVRQAPGQGLEWMGHFSPGNTDIKYNDKFKGRVTITADKSTSTAYMELSSLRSEDTAVYYCKTSTFFFDYWGQGTTVTVSSAAAHHHHHH
notes: Supernatant of construct 6D16 in the Octet assay; purified 13P16 elsewhere. scFv of CAR MB024; also called 6D16
B1: the Kd in [1] was 445 nM; in [2], 166 nM and 181 nM; in [3], 195 nM; in [4], 445 nM; in test [5], 445 nM; in test [6] it was 231 nM. Moreover, the Kd in test [7] came out at 174 nM; in [8], 174 nM; in test [10], 195 nM; in [11] it was 231 nM. Moreover, the off-rate constant (koff) is 0.00117 s⁻¹ in test [1]; 0.00654 s⁻¹ and 0.00652 s⁻¹ in test [2]; 0.00633 s⁻¹ in [3]; 0.00117 s⁻¹ in [4]; 0.00635 s⁻¹ in test [6]; 0.00653 s⁻¹ in test [7]. The koff is 0.00633 s⁻¹ in test [10] and 0.00635 s⁻¹ in test [11]. Besides, the kon is 2630 M⁻¹ s⁻¹ in test [1]; 39500 M⁻¹ s⁻¹ and 36100 M⁻¹ s⁻¹ in test [2]; 32600 M⁻¹ s⁻¹ in test [3]; 2630 M⁻¹ s⁻¹ in [4]; 27500 M⁻¹ s⁻¹ in test [6]; 37800 M⁻¹ s⁻¹ in test [7]. In addition, the figures for the kon in test [10] and in [11] were 32600 M⁻¹ s⁻¹ and 27500 M⁻¹ s⁻¹, respectively. Also, in test [9], the “fold lower affinity than the murine 5E5 scFv protein” value was approximately 10 fold. Also, the binding result in [12] is “no binding”.

B2: humanised anti-TnMUC1 scFv protein 16P4 (82A), L0-H3 (scFv)
scFv: B1 scFv with F55Y
notes: Supernatant of construct 6D4 in the Octet assay; purified 16P4 elsewhere. scFv of CAR MB021; also called 6D4
For B2, the dissociation constant Kd in [1] is 536 nM; in test [2] it was 195 nM and 197 nM; in [5], 536 nM; in test [6], 250 nM; in test [7] it was 196 nM; in test [8] it was 196 nM. Moreover, in test [10], the dissociation constant (Kd) came to 208 nM. Besides, the koff in [1] is 0.00122 s⁻¹; in test [2], 0.00694 s⁻¹ and 0.0068 s⁻¹; in test [6] it was 0.00708 s⁻¹; in test [7], 0.00687 s⁻¹; in [10], 0.00698 s⁻¹. Moreover, the kon is 2290 M⁻¹ s⁻¹ in test [1]; 35600 M⁻¹ s⁻¹ and 34500 M⁻¹ s⁻¹ in test [2]; 28500 M⁻¹ s⁻¹ in test [6]; 35100 M⁻¹ s⁻¹ in [7]; 33900 M⁻¹ s⁻¹ in test [10]. Further, the binding result in [13] was “no binding (tested: 500 nM)”. Further, the “fold lower affinity than the murine 5E5 scFv protein” value in test [9] is approximately 10 fold.

Broadly, the Kd is a measure of binding affinity in units of concentration. Read a low Kd as higher affinity. The koff is the first-order rate constant of dissociation. A higher koff goes with a short-lived complex. In general, kon refers to the second-order rate constant of association. A lower kon goes with slower complex formation.
